Source: EP4635983A1 (Ymmunobio AG, dated 2025)
Where no end group is shown, it is not given here.

What was measured:
[1] = target: T1, peptide (mNPTXR) representing the mouse NPTXR epitope space (mouse, also: biotinylated, position not given here); assay: ELISA, biotinylated mNPTXR peptide captured by streptavidin, antibody titrated from 10 ug/ml, anti-human IgG Fc-HRP detection
T1 construct: Immobilized on the ELISA plate by streptavidin capture; also called Bio-mNPTXR; Strep + Bio-mNPTXR
T1 peptide: CESGLPRGLQDAGPRRDT

[2] = target: T2, recombinant human NPTXR (rhNPTXR; Ala24 to Ala500 of Acc no. #O95502) (human, UniProt O95502 24-500); assay: ELISA, rhNPTXR immobilized on plate, antibody titrated from 10 ug/ml, anti-human IgG Fc-HRP detection
T2 construct: range 24-500; Recombinant protein immobilized on the ELISA plate
T2 sequence (looked up): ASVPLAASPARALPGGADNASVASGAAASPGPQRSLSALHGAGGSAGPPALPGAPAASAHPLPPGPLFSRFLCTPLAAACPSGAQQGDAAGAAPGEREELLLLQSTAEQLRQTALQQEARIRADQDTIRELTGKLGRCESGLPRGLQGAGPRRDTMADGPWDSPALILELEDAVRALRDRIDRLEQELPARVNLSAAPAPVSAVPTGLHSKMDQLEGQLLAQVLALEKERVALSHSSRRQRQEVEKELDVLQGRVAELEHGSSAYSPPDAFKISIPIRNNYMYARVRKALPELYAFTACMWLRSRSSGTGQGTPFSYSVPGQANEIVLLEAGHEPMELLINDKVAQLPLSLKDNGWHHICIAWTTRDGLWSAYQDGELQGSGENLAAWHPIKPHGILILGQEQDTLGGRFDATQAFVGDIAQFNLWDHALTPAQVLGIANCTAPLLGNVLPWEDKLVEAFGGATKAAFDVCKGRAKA

- EC50 [1]: 0.0309 µg/mL
- EC50 [2]: 0.0271 µg/mL
B1: YB-800 (antibody, human IgG1, V domains shown)
VH: QVQLVQSGAEVKKPGASVKVSCKASGYTFTNYGMNWVRQAPGQRLEWMGWINTDIGEPTYSQKFQGRVTITRDTSASTAYMELSSLRSEDTAVYYCAREMDVWGQGTTVTVSS
VL: DIQMTQSPSSLSASVGDRVTITCRASQSISDYLHWYQQKPGKAPKLLIKYVSHSISGVPSRFSGSGSGTDFTLTISSLQPEDFATYYCLNGHSFPFTFGGGTKVEIK
